Test results reported in patent US12522647B2, “Beta-arrestin mutants” (PAUL SCHERRER INSTITUT, priority 2019, dated 2026).

Target: T1, β2-adrenergic receptor (β2AR, B2AR) (Homo sapiens, UniProt P07550)
T1 construct: expressed in transfected cells; host or cells: HEK293 cells (transient co-transfection, Lipofectamine 2000)
Experiment: BRET arrestin recruitment assay: isoproterenol-induced recruitment of GFP-arrestin-3 WT or mutants to RLuc8-β2AR
Assay type: cell-based
Settings: for Potency (pEC50 ± Std. error): isoproterenol concentration giving half-maximal arrestin recruitment to β2AR, BRET AUC over 19.5 min, isoproterenol 10 pM to 10 μM; for Recruitment to B2AR compared to wild-type arrestin-3 (in words): isoproterenol concentration-response curves, FIG. 1; for Efficacy (Emax ± Std. error) in %, normalized to WT: maximal isoproterenol-induced recruitment to β2AR, WT arrestin-3 at 10 μM isoproterenol set to 100%
Experimental: […] were seeded onto poly-L-lysine coated, white, 96-well plates at a density of ˜25,000 cells per well. […] The day following transfection, cell culture medium was exchanged with fresh medium. Another 24 h later cell culture medium was replaced with assay buffer (HBSS+20 mM HEPES and pH 7.4) and cells were treated with 5 μM cell-permeable substrate Coelenterazine 400A (Cayman Chemical), which is catalysed by the BRET donor RLuc8, resulting in the emission of light (λmax=410 nm). BRET measurement was performed in a plate reader PheraStar FSX (BMG Biotech) with the optical module (BRET2 plus, 515-30, 410-80). At t=4.5 min, isoproterenol (Tocris Bioscience) was added at increasing concentrations to the cells (from 10 pM to 10 μM). BRET ratio was determined by calculating the ratio of the light intensity emitted by the GFP (515 nm) over the light intensity emitted by the Rluc8/Coelenterazine 400A (410 nm). […] The coefficient of determination R^2 can range between 0 and 1 and represents the quality of the fitting between the experimental values (marks, FIG. 1) and the non-linear regression analysis (curves, FIG. 1). Experiments were performed in technical duplicates in two independent experiments.
An arrestin recruitment assay based on Bioluminescence Resonance Energy Transfer (BRET) was performed to compare the recruitment efficiencies of arrestin-3 double and triple mutants with wild-type arrestin-3 towards B2AR.
The recruitment responses can be defined by two pharmacological parameters: potency and efficacy. In general, efficacy (Emax) is a measure of the maximum effect that is expected from a compound/drug. […] Potency is often given as the EC50 value, which defines the amount of compound required to produce 50% of that compound's maximal effect. For simpler illustration, the pEC50 value, which is the negative logarithm of the EC50 in molar concentrations, is shown.
The potency (pEC50) represents the molar concentration of isoproterenol necessary to obtain half of the total recruitment of arrestin-3 or efficiency (Emax) for each arrestin.

Molecule	Potency (pEC50 ± Std. error)	Recruitment to B2AR compared to wild-type arrestin-3 (in words)	Efficacy (Emax ± Std. error) in %, normalized to WT	EC50 (converted from pEC50, isoproterenol-induced recruitment to β2AR, read-out: Potency expressed as isoproterenol concentration)
Double mutant A: Arrestin-3 double mutant containing T299A and I386A when compared to human wt arrestin-3	7.1±0.03	increased recruitment efficacy	131.5±1.82%	–
Triple mutant B: Arrestin-3 triple mutant containing T299A, I386A and R166A when compared to human wt arrestin-3 (protein, Arrestin-3 triple mutant B containing T299A, I386A and R166A) MGEKPGTRVFKKSSPNCKLTVYLGKRDFVDHLDKVDPVDGVVLVDPDYLKDRKVFVTLTCAFRYGREDLDVLGLSFRKDLFIATYQAFPPVPNPPRPPTRLQDRLLRKLGQHAHPFFFTIPQNLPCSVTLQPGPEDTGKACGVDFEIRAFCAKSLEEKSHKRNSVALVIRKVQFAPEKPGPQPSAETTRHFLMSDRSLHLEASLDKELYYHGEPLNVNVHVTNNSTKTVKKIKVSVRQYADICLFSTAQYKCPVAQLEQDDQVSPSSTFCKVYTITPLLSDNREKRGLALDGKLKHEDANLASSTIVKEGANKEVLGILVSYRVKVKLVVSRGGDVSVELPFVLMHPKPHDHIPLPRPQSAAPETDVPVDTNLIEFDTNYATDDDAVFEDFARLRLKGMKDDDYDDQLC	7.3±0.06	increased recruitment efficacy	103.0 ± 2.53%	50.1 nM
Triple mutant C: Arrestin-3 triple mutant containing T299A, I386A and D298A when compared to human wt arrestin-3 (protein, Arrestin-3 triple mutant C containing T299A, I386A and D298A) MGEKPGTRVFKKSSPNCKLTVYLGKRDFVDHLDKVDPVDGVVLVDPDYLKDRKVFVTLTCAFRYGREDLDVLGLSFRKDLFIATYQAFPPVPNPPRPPTRLQDRLLRKLGQHAHPFFFTIPQNLPCSVTLQPGPEDTGKACGVDFEIRAFCAKSLEEKSHKRNSVRLVIRKVQFAPEKPGPQPSAETTRHFLMSDRSLHLEASLDKELYYHGEPLNVNVHVTNNSTKTVKKIKVSVRQYADICLFSTAQYKCPVAQLEQDDQVSPSSTFCKVYTITPLLSDNREKRGLALDGKLKHEAANLASSTIVKEGANKEVLGILVSYRVKVKLVVSRGGDVSVELPFVLMHPKPHDHIPLPRPQSAAPETDVPVDTNLIEFDTNYATDDDAVFEDFARLRLKGMKDDDYDDQLC	7.2 ± 0.04	–	108.9 ± 1.84%	–
Triple mutant D: Arrestin-3 triple mutant containing T299A, I386A and R393A when compared to human wt arrestin-3 (protein, Arrestin-3 triple mutant D containing T299A, I386A and R393A) MGEKPGTRVFKKSSPNCKLTVYLGKRDFVDHLDKVDPVDGVVLVDPDYLKDRKVFVTLTCAFRYGREDLDVLGLSFRKDLFIATYQAFPPVPNPPRPPTRLQDRLLRKLGQHAHPFFFTIPQNLPCSVTLQPGPEDTGKACGVDFEIRAFCAKSLEEKSHKRNSVRLVIRKVQFAPEKPGPQPSAETTRHFLMSDRSLHLEASLDKELYYHGEPLNVNVHVTNNSTKTVKKIKVSVRQYADICLFSTAQYKCPVAQLEQDDQVSPSSTFCKVYTITPLLSDNREKRGLALDGKLKHEDANLASSTIVKEGANKEVLGILVSYRVKVKLVVSRGGDVSVELPFVLMHPKPHDHIPLPRPQSAAPETDVPVDTNLIEFDTNYATDDDAVFEDFAALRLKGMKDDDYDDQLC	7.2 ± 0.03	–	89.2 ± 1.23%	–
